In patent US20040167319A1 (Genmab, published 2004):

Target: human CD20 (human) (UniProt P11836)
Assay: dissociation of 125I-labelled F(ab)2 fragments from Ramos-EHRB cells, initial binding set at 100%

Chain of human CD20 (human) (P11836 whole entry, the tested form may be a part): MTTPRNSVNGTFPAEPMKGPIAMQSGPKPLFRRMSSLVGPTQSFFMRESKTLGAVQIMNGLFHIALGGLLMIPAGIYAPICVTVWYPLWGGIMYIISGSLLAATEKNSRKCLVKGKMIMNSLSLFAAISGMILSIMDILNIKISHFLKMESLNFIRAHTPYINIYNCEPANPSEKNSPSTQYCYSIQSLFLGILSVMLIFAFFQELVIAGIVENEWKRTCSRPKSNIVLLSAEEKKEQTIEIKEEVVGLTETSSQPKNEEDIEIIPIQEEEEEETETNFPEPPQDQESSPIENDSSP

percent still bound at 90 min: 50%
Substance: F(ab′)2 fragment of rituximab
